Patent US20240294646A1

Molecular target: FcγRIIb (UniProt P31994)
Experiment: SPR (Protocol 2); ratio of the fold for FcγRIIb to the fold for FcγRIIaR

FcγRIIb, sequence (P31994 43-217): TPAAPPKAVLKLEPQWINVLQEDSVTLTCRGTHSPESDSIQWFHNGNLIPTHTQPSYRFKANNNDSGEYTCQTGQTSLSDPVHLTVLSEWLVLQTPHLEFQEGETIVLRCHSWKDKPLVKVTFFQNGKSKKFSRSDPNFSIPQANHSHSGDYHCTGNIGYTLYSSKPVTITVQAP

| Substance | IIb/IIaR Selectivity (IIb-Fold/IIaR-Fold) |
| --- | --- |
| Variant 16493 (chain A: G236N / chain B: G236N), one-armed trastuzumab antibody, Scaffold 2 | 3.1 |
| Variant 19515 (chain A: G236Q / chain B: S239D_H268D), one-armed trastuzumab antibody, Scaffold 2 | 0.7 |
| Variant 19512 (chain A: none / chain B: G236N_S239D_H268D), one-armed trastuzumab antibody, Scaffold 2 | 2.5 |
| Variant 19523 (chain A: G236D / chain B: G236N_S239D_H268D), one-armed trastuzumab antibody, Scaffold 2 | 3.6 |
| Variant 19521 (chain A: G236N / chain B: G236D_S239D_H268D), one-armed trastuzumab antibody, Scaffold 2 | 6.8 |
| Variant 19504 (chain A: G236N_G237F / chain B: G236N_G237F), one-armed trastuzumab antibody, Scaffold 2 | 3.3 |
| Variant 19514 (chain A: none / chain B: G236H_S239D_H268D), one-armed trastuzumab antibody, Scaffold 2 | 1.7 |
| Variant 19520 (chain A: none / chain B: G236E_S239D_H268D), one-armed trastuzumab antibody, Scaffold 2 | 1.5 |
| Variant 19513 (chain A: G236H / chain B: S239D_H268D), one-armed trastuzumab antibody, Scaffold 2 | 0.6 |
| Variant 19526 (chain A: G236D / chain B: G236K_S239D_H268D), one-armed trastuzumab antibody, Scaffold 2 | 3.5 |
| Variant 16490 (chain A: G236D / chain B: G236D), one-armed trastuzumab antibody, Scaffold 2 | 2.4 |
| Variant 19519 (chain A: G236E / chain B: S239D_H268D), one-armed trastuzumab antibody, Scaffold 2 | 0.3 |
| Variant 19509 (chain A: G236N / chain B: S239D_H268D), one-armed trastuzumab antibody, Scaffold 2 | 3.3 |
| Variant 19527 (chain A: G236N / chain B: G236K_S239D_H268D), one-armed trastuzumab antibody, Scaffold 2 | 6 |
| Variant 19508 (chain A: none / chain B: S239D_H268D), one-armed trastuzumab antibody, Scaffold 2 | 1.2 |
| Variant 19699 (chain A: G236D_G237F / chain B: G236D_G237F), one-armed trastuzumab antibody, Scaffold 2 | 7 |
| Variant 19694 (chain A: none / chain B: G236D_G237F_S239D_H268D), one-armed trastuzumab antibody, Scaffold 2 | 2.9 |
| Variant 19503 (chain A: G236N_G237A / chain B: G236N_G237A), one-armed trastuzumab antibody, Scaffold 2 | 4.5 |
| Variant 19525 (chain A: G236D / chain B: G236Q_S239D_H268D), one-armed trastuzumab antibody, Scaffold 2 | 3.7 |
| Variant 19511 (chain A: G236N_G237F / chain B: S239D_H268D), one-armed trastuzumab antibody, Scaffold 2 | 1.2 |
| Variant 19528 (chain A: G236N / chain B: G236S_S239D_H268D), one-armed trastuzumab antibody, Scaffold 2 | 2.8 |
| Variant 19518 (chain A: none / chain B: G236D_S239D_H268D), one-armed trastuzumab antibody, Scaffold 2 | 2.2 |
| Variant 19507 (chain A: G236E / chain B: G236E), one-armed trastuzumab antibody, Scaffold 2 | 0.4 |

Molecular target: Soluble FcγRIIaR extracellular domain with C-terminal 10×His tag (UniProt P12318)
Sequence (P12318 other isoform, or with tags, fused parts or gaps): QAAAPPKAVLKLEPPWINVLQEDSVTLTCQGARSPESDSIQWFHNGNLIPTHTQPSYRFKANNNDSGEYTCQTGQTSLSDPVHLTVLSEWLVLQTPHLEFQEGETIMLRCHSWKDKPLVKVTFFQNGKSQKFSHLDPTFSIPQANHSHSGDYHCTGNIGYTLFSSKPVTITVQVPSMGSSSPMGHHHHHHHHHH
Experiment: SPR (Biacore 4000), antibody captured on immobilised HER2, soluble receptor as analyte

| Substance | Kd |
| --- | --- |
| Variant 26710 (A_E269P_strat2), one-armed trastuzumab antibody | 0.078 µM |
| Variant 26704 (A_E269Q_strat2), one-armed trastuzumab antibody | 0.066 µM |
| Variant 26717 (A_D270W_strat2), one-armed trastuzumab antibody | 0.083 µM |
| Variant 26719 (A_D270T_strat2), one-armed trastuzumab antibody | 0.063 µM |
| Variant 26709 (A_E269H_strat2), one-armed trastuzumab antibody | 0.069 µM |
| Variant 26701 (A_E269Y_strat2), one-armed trastuzumab antibody | 0.067 µM |
| Variant 26715 (A_D270I_strat2), one-armed trastuzumab antibody | 0.081 µM |
| Variant 26714 (A_D270L_strat2), one-armed trastuzumab antibody | 0.079 µM |
| Variant 26711 (A_D270G_strat2), one-armed trastuzumab antibody | 0.18 µM |
| Variant 26707 (A_E269R_strat2), one-armed trastuzumab antibody | 0.077 µM |

Molecular target: Soluble FcγRIIb extracellular domain with C-terminal 10×His tag (UniProt P31994)
Sequence (P31994 other isoform, or with tags, fused parts or gaps): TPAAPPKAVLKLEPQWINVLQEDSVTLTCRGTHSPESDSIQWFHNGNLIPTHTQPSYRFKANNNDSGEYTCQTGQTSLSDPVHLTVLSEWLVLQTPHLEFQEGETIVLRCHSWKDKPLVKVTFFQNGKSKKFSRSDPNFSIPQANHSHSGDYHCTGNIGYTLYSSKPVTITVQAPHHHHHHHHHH
Experiment: as above

| Substance | Kd |
| --- | --- |
| Variant 26710 (A_E269P_strat2), one-armed trastuzumab antibody | 0.027 µM |
| Variant 26704 (A_E269Q_strat2), one-armed trastuzumab antibody | 0.022 µM |
| Variant 26717 (A_D270W_strat2), one-armed trastuzumab antibody | 0.027 µM |
| Variant 26719 (A_D270T_strat2), one-armed trastuzumab antibody | 0.023 µM |
| Variant 26709 (A_E269H_strat2), one-armed trastuzumab antibody | 0.022 µM |
| Variant 26701 (A_E269Y_strat2), one-armed trastuzumab antibody | 0.021 µM |
| Variant 26715 (A_D270I_strat2), one-armed trastuzumab antibody | 0.025 µM |
| Variant 26714 (A_D270L_strat2), one-armed trastuzumab antibody | 0.033 µM |
| Variant 26711 (A_D270G_strat2), one-armed trastuzumab antibody | 0.053 µM |
| Variant 26707 (A_E269R_strat2), one-armed trastuzumab antibody | 0.023 µM |

Molecular target: C1q (human) (UniProt P02745)
Sequence (P02745 23-245 limits assumed, chain 1 of 3): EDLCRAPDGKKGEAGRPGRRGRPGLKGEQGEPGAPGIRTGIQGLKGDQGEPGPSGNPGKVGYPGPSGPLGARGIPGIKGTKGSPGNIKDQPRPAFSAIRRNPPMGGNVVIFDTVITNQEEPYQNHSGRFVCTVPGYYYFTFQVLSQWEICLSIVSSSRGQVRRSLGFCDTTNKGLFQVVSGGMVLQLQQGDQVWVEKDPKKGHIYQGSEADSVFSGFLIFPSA
Sequence (P02746 28-253 limits assumed, chain 2 of 3, further chain): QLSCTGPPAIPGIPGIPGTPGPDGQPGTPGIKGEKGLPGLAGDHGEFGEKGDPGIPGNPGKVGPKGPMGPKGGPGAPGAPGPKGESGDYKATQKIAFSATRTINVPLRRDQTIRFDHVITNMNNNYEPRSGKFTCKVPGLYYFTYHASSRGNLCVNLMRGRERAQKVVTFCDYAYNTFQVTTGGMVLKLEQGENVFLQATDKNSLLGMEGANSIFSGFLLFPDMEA
Sequence (P02747 29-245 limits assumed, chain 3 of 3, further chain): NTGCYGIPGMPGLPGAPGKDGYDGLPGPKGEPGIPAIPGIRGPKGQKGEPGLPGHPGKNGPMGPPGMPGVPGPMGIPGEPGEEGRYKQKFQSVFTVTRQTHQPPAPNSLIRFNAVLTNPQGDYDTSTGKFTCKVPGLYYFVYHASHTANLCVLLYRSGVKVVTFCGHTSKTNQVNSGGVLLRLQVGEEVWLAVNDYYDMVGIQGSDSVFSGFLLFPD
Experiment: ELISA; antibody coated, human C1q added, signal as % of WT

| Substance | C1q Binding (% WT) |
| --- | --- |
| Variant 32263 (trastuzumab FSA; chain A L235A_strat1, chain B G330*K_strat1) (antibody) | 170 % WT |
| Variant 32277 (trastuzumab FSA; chain A S239G_strat2, chain B G237L_strat2) (antibody) | 0 % WT |
| Variant 32255 (trastuzumab FSA; chain A S239T_strat1, chain B D329*I_F328*Y_strat1) (antibody) | 194 % WT |
| Variant 32273 (trastuzumab FSA; chain A L235R_strat2, chain B G237L_strat2) (antibody) | 2 % WT |
| Variant 32256 (trastuzumab FSA; chain A A237D_strat1, chain B G330*K_strat1) (antibody) | 124 % WT |
| Variant 32257 (trastuzumab FSA; chain A A237E_strat1, chain B G330*K_strat1) (antibody) | 145 % WT |
| Variant 32268 (trastuzumab FSA; chain A S239T_strat1, chain B G330*K_strat1) (antibody) | 210 % WT |
| Variant 32260 (trastuzumab FSA; chain A L234D_strat1, chain B G330*K_strat1) (antibody) | 189 % WT |
| Variant 32261 (trastuzumab FSA; chain A L234Q_strat1, chain B G330*K_strat1) (antibody) | 209 % WT |

Molecular target: FcγRIIb (UniProt P31994)
Experiment: SPR (Protocol 2), antibody captured on immobilised HER2, receptor as analyte

| Substance | IIb-Fold (fold change in affinity over wild-type) (fold over wild-type) |
| --- | --- |
| Variant 16493 (chain A: G236N / chain B: G236N), one-armed trastuzumab antibody, Scaffold 2 | 0.8 |
| Variant 19515 (chain A: G236Q / chain B: S239D_H268D), one-armed trastuzumab antibody, Scaffold 2 | 9.6 |
| Variant 19512 (chain A: none / chain B: G236N_S239D_H268D), one-armed trastuzumab antibody, Scaffold 2 | 7.9 |
| Variant 19523 (chain A: G236D / chain B: G236N_S239D_H268D), one-armed trastuzumab antibody, Scaffold 2 | 6.9 |
| Variant 19521 (chain A: G236N / chain B: G236D_S239D_H268D), one-armed trastuzumab antibody, Scaffold 2 | 37.6 |
| Variant 19504 (chain A: G236N_G237F / chain B: G236N_G237F), one-armed trastuzumab antibody, Scaffold 2 | 0.2 |
| Variant 19514 (chain A: none / chain B: G236H_S239D_H268D), one-armed trastuzumab antibody, Scaffold 2 | 4.2 |
| Variant 19520 (chain A: none / chain B: G236E_S239D_H268D), one-armed trastuzumab antibody, Scaffold 2 | 26.5 |
| Variant 19513 (chain A: G236H / chain B: S239D_H268D), one-armed trastuzumab antibody, Scaffold 2 | 8.2 |
| Variant 19526 (chain A: G236D / chain B: G236K_S239D_H268D), one-armed trastuzumab antibody, Scaffold 2 | 1.4 |
| Variant 16490 (chain A: G236D / chain B: G236D), one-armed trastuzumab antibody, Scaffold 2 | 2.1 |
| Variant 19519 (chain A: G236E / chain B: S239D_H268D), one-armed trastuzumab antibody, Scaffold 2 | 10.3 |
| Variant 19509 (chain A: G236N / chain B: S239D_H268D), one-armed trastuzumab antibody, Scaffold 2 | 31.8 |
| Variant 19527 (chain A: G236N / chain B: G236K_S239D_H268D), one-armed trastuzumab antibody, Scaffold 2 | 1.2 |
| Variant 19508 (chain A: none / chain B: S239D_H268D), one-armed trastuzumab antibody, Scaffold 2 | 31.1 |
| Variant 19699 (chain A: G236D_G237F / chain B: G236D_G237F), one-armed trastuzumab antibody, Scaffold 2 | 2.1 |
| Variant 19694 (chain A: none / chain B: G236D_G237F_S239D_H268D), one-armed trastuzumab antibody, Scaffold 2 | 53.5 |
| Variant 19503 (chain A: G236N_G237A / chain B: G236N_G237A), one-armed trastuzumab antibody, Scaffold 2 | 0.2 |
| Variant 19525 (chain A: G236D / chain B: G236Q_S239D_H268D), one-armed trastuzumab antibody, Scaffold 2 | 7.7 |
| Variant 19511 (chain A: G236N_G237F / chain B: S239D_H268D), one-armed trastuzumab antibody, Scaffold 2 | 7.1 |
| Variant 19528 (chain A: G236N / chain B: G236S_S239D_H268D), one-armed trastuzumab antibody, Scaffold 2 | 18.6 |
| Variant 19518 (chain A: none / chain B: G236D_S239D_H268D), one-armed trastuzumab antibody, Scaffold 2 | 32.9 |
| Variant 19507 (chain A: G236E / chain B: G236E), one-armed trastuzumab antibody, Scaffold 2 | 0.8 |

Molecular target: FcγRIIaR (UniProt P12318)
Sequence (P12318 34-217): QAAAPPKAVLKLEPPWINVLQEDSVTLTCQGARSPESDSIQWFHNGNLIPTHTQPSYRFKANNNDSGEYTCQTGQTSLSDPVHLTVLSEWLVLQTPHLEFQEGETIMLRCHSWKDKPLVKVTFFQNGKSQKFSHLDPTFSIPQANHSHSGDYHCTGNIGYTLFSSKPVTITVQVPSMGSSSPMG
Experiment: as above

| Substance | IIaR-Fold (fold change in affinity over wild-type) (fold over wild-type) |
| --- | --- |
| Variant 16493 (chain A: G236N / chain B: G236N), one-armed trastuzumab antibody, Scaffold 2 | 0.3 |
| Variant 19515 (chain A: G236Q / chain B: S239D_H268D), one-armed trastuzumab antibody, Scaffold 2 | 14.2 |
| Variant 19512 (chain A: none / chain B: G236N_S239D_H268D), one-armed trastuzumab antibody, Scaffold 2 | 3.2 |
| Variant 19523 (chain A: G236D / chain B: G236N_S239D_H268D), one-armed trastuzumab antibody, Scaffold 2 | 1.9 |
| Variant 19521 (chain A: G236N / chain B: G236D_S239D_H268D), one-armed trastuzumab antibody, Scaffold 2 | 5.5 |
| Variant 19504 (chain A: G236N_G237F / chain B: G236N_G237F), one-armed trastuzumab antibody, Scaffold 2 | 0.05 |
| Variant 19514 (chain A: none / chain B: G236H_S239D_H268D), one-armed trastuzumab antibody, Scaffold 2 | 2.5 |
| Variant 19520 (chain A: none / chain B: G236E_S239D_H268D), one-armed trastuzumab antibody, Scaffold 2 | 17.5 |
| Variant 19513 (chain A: G236H / chain B: S239D_H268D), one-armed trastuzumab antibody, Scaffold 2 | 13.4 |
| Variant 19526 (chain A: G236D / chain B: G236K_S239D_H268D), one-armed trastuzumab antibody, Scaffold 2 | 0.4 |
| Variant 16490 (chain A: G236D / chain B: G236D), one-armed trastuzumab antibody, Scaffold 2 | 0.9 |
| Variant 19519 (chain A: G236E / chain B: S239D_H268D), one-armed trastuzumab antibody, Scaffold 2 | 30.9 |
| Variant 19509 (chain A: G236N / chain B: S239D_H268D), one-armed trastuzumab antibody, Scaffold 2 | 9.7 |
| Variant 19527 (chain A: G236N / chain B: G236K_S239D_H268D), one-armed trastuzumab antibody, Scaffold 2 | 0.2 |
| Variant 19508 (chain A: none / chain B: S239D_H268D), one-armed trastuzumab antibody, Scaffold 2 | 25.6 |
| Variant 19699 (chain A: G236D_G237F / chain B: G236D_G237F), one-armed trastuzumab antibody, Scaffold 2 | 0.3 |
| Variant 19694 (chain A: none / chain B: G236D_G237F_S239D_H268D), one-armed trastuzumab antibody, Scaffold 2 | 18.2 |
| Variant 19503 (chain A: G236N_G237A / chain B: G236N_G237A), one-armed trastuzumab antibody, Scaffold 2 | 0.04 |
| Variant 19525 (chain A: G236D / chain B: G236Q_S239D_H268D), one-armed trastuzumab antibody, Scaffold 2 | 2.1 |
| Variant 19511 (chain A: G236N_G237F / chain B: S239D_H268D), one-armed trastuzumab antibody, Scaffold 2 | 5.7 |
| Variant 19528 (chain A: G236N / chain B: G236S_S239D_H268D), one-armed trastuzumab antibody, Scaffold 2 | 6.7 |
| Variant 19518 (chain A: none / chain B: G236D_S239D_H268D), one-armed trastuzumab antibody, Scaffold 2 | 14.7 |
| Variant 19507 (chain A: G236E / chain B: G236E), one-armed trastuzumab antibody, Scaffold 2 | 1.8 |
